Measurements published in PMC5051949, “Mechanism of Rifampicin Inactivation in Nocardia farcinica” (PLoS ONE, 2016).

Assays:
[1] = target: T1, RifMO (rifampicin monooxygenase) (Nocardia farcinica, UniProt Q5YTV5); assay: steady-state oxygen consumption (oxygraph); assay type: biochemical; details: substrate inhibition by NADPH; 30 μM Rif, 100 mM sodium phosphate pH 7.5, 25°C
T1 construct: gene rox; full-length, codon optimized, pET15b N-terminal 6xHis tag cleaved with thrombin, expressed in E. coli
T1 sequence (Q5YTV5 whole entry): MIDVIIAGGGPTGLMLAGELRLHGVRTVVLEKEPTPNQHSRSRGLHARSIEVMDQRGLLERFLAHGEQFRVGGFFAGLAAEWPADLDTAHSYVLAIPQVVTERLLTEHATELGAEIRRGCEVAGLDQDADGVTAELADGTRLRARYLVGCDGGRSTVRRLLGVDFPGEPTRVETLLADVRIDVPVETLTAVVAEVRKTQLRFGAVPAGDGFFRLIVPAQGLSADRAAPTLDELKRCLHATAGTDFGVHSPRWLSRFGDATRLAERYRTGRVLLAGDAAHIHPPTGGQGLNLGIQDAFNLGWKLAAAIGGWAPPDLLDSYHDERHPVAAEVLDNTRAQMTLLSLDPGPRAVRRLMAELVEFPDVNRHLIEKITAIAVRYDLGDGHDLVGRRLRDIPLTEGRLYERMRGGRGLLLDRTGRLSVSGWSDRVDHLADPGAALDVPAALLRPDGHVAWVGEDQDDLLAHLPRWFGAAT
Excerpt: (§1) steady-state oxygen consumption (oxygraph) on RifMO (rifampicin monooxygenase)

[2] = target: T1, RifMO (rifampicin monooxygenase); assay: flavin absorbance change at […] nm (spectral titration); assay type: binding
[3] = tested on: CO[C@H]1/C=C/O[C@@]2(C)Oc3c(C)c(O)c4c(O)c(c(/C=N/N5CCN(C)CC5)c(O)c4c3C2=O)NC(=O)/C(C)=C\C=C\[C@H](C)[C@H](O)[C@@H](C)[C@@H](O)[C@@H](C)[C@H](OC(C)=O)[C@@H]1C; assay: steady-state oxygen consumption (oxygraph); assay type: biochemical, Nocardia farcinica; details: 1 mM NADPH, 100 mM sodium phosphate pH 7.5, 25°C
Excerpt: as §1

[4] = tested on: NC(=O)C1=CN([C@@H]2O[C@H](COP(=O)(O)OP(=O)(O)OC[C@H]3O[C@@H](n4cnc5c(N)ncnc54)[C@H](O)[C@@H]3O)[C@@H](O)[C@H]2O)C=CC1; assay: steady-state oxygen consumption (oxygraph); assay type: biochemical, Nocardia farcinica; details: 30 μM Rif, 100 mM sodium phosphate pH 7.5, 25°C, varied: cofactor
Excerpt: as §1

[5] = tested on: NC(=O)C1=CN([C@@H]2O[C@H](COP(=O)(O)OP(=O)(O)OC[C@H]3O[C@@H](n4cnc5c(N)ncnc54)[C@H](OP(=O)(O)O)[C@@H]3O)[C@@H](O)[C@H]2O)C=CC1; assay: steady-state oxygen consumption (oxygraph); assay type: biochemical, Nocardia farcinica; details: 30 μM Rif, 100 mM sodium phosphate pH 7.5, 25°C, varied: cofactor
Excerpt: as §1

In the case of `NC(=O)C1=CN([C@@H]2O[C@H](COP(=O)(O)OP(=O)(O)OC[C@H]3O[C@@H](n4cnc5c(N)ncnc54)[C@H](OP(=O)(O)O)[C@@H]3O)[C@@H](O)[C@H]2O)C=CC1` [NADPH], the “KI” value [1] is reported as 33000 ± 4000 µM.

`CO[C@H]1/C=C/O[C@@]2(C)Oc3c(C)c(O)c4c(O)c(c(/C=N/N5CCN(C)CC5)c(O)c4c3C2=O)NC(=O)/C(C)=C\C=C\[C@H](C)[C@H](O)[C@@H](C)[C@@H](O)[C@@H](C)[C@H](OC(C)=O)[C@@H]1C` [Rif, rifampicin] gave a Kd [2] of 9.5 ± 2.5 µM.

With “RifMO (rifampicin monooxygenase) (Nocardia farcinica IFM 10152)” the Km [3] was 5.8 ± 0.88 µM, the kcat [3] was 4 ± 0.16 s⁻¹ and the kcat/Km [3] was 700000 ± 81300 M⁻¹ s⁻¹. The Km [4] was 266 ± 25 µM, the kcat [4] was 3.3 ± 0.06 s⁻¹ and the kcat/Km [4] was 12600 ± 1000 M⁻¹ s⁻¹. The Km [5] was 90 ± 10 µM, the kcat [5] was 4 ± 0.1 s⁻¹ and the kcat/Km [5] was 43100 ± 3700 M⁻¹ s⁻¹.
